Assay results published in patent publication US20260327578A1, “TRANSGLUTAMINASES AND USES THEREOF” (CURIE CO. INC., priority 2023, published 2026).

What follows are molecules tested on N,N-dimethylcasein (assay: Chemostability: residual Tgase activity after 24 hour incubation at 20-30 °C, normalized to wild-type). Settings: improvement relative to wild-type mature Tgase (SEQ ID NO: 2); residual activity after 24 h at 20-30 °C in cell-free extract.
Type: biochemical
Description: Table 5 depicts variants of Streptomyces mobaraensis Tgase and improvement to stability relative to wild-type mature Tgase (SEQ ID NO. 2) as determined in Example 3. Numbering of amino acid positions is in reference to the mature S. mobaraensis Tgase sequence depicted in SEQ ID NO. 2. A “+” indicates an improvement between 1.2 and 2-fold. A “++” indicates an improvement greater than 2-fold.
To evaluate chemostability, Tgase samples in cell-free extract were assayed for activity, using the assay described in Example 4B, immediately after expression and again following a 24 hour incubation at 20-30° C. Mature Tgase variant residual activity was normalized to the residual activity of the wild-type and results are depicted in Table 5.
Protein functionalization by Tgase variants was determined by the fluorogenic labeling of casein using monodansylcadaverine (e.g., a commercially available kit such as the Transglutaminase Fluorogenic Activity Assay Kit, T036, Zedira, Germany). Tgase activity was monitored by measuring fluorescence (excitation wavelength 332 nm; emission wavelength 500 nm) using a BioTek Synergy H1 microplate reader. Transglutaminase-catalyzed covalent coupling (crosslinking) of monodansylcadaverine with N,N-dimethylcasein produces a product that causes a shift in intensity and wavelength of fluorescence of the dansyl group now linked to the casein. The relative transglutaminase activity is shown by increase of fluorescence intensity over time. Enzyme variant loading was optimized based on expression levels, ensuring enzyme was the rate limiting factor. Briefly, cell-free reactions (set up as described in Example 2A) were first diluted 10-fold using phosphate buffer, pH 7.4, and a 5 microliter aliquot was analyzed.

Row | Molecule | Stability
1 | S5: Tgase variant S2P Q39N Q51E relative to SEQ ID NO: 2 (protein, UniProt P81453 77-407, looked up, variant S2P Q39N Q51E) Protein-glutamine …: DPDDRVTPPAEPLDRMPDPYRPSYGRAETVVNNYIRKWNQVYSHRDGRKQEMTEEQREWLSYGCVGVTWVNSGQYPTNRLAFASFDEDRFKNELKNGRPRSGETRAEFEGRVAKESFDEEKGFQRAREVASVMNRALENAHDESAYLDNLKKELANGNDALRNEDARSPFYSALRNTPSFKERNGGNHDPSRMKAVIYSKHFWSGQDRSSSADKRKYGDPDAFRPAPGTGLVDMSRDRNIPRSPTSPGEGFVNFDYGWFGAQTEADADKTVWTHGNHYHAPNGSLGAMHVYESKFRNWSEGYSDFDRGAYVITFIPKSWNTAPDKVKQGWP | + (an improvement between 1.2 and 2-fold)
2 | S6: Tgase variant S2P Q56M Q74S relative to SEQ ID NO: 2 (protein, UniProt P81453 77-407, looked up, variant S2P Q56M Q74S) Protein-glutamine …: DPDDRVTPPAEPLDRMPDPYRPSYGRAETVVNNYIRKWQQVYSHRDGRKQQMTEEMREWLSYGCVGVTWVNSGSYPTNRLAFASFDEDRFKNELKNGRPRSGETRAEFEGRVAKESFDEEKGFQRAREVASVMNRALENAHDESAYLDNLKKELANGNDALRNEDARSPFYSALRNTPSFKERNGGNHDPSRMKAVIYSKHFWSGQDRSSSADKRKYGDPDAFRPAPGTGLVDMSRDRNIPRSPTSPGEGFVNFDYGWFGAQTEADADKTVWTHGNHYHAPNGSLGAMHVYESKFRNWSEGYSDFDRGAYVITFIPKSWNTAPDKVKQGWP | ++ (an improvement greater than 2-fold)
3 | S7: Tgase variant S2P K49T Q74M relative to SEQ ID NO: 2 (protein, UniProt P81453 77-407, looked up, variant S2P K49T Q74M) Protein-glutamine …: DPDDRVTPPAEPLDRMPDPYRPSYGRAETVVNNYIRKWQQVYSHRDGRTQQMTEEQREWLSYGCVGVTWVNSGMYPTNRLAFASFDEDRFKNELKNGRPRSGETRAEFEGRVAKESFDEEKGFQRAREVASVMNRALENAHDESAYLDNLKKELANGNDALRNEDARSPFYSALRNTPSFKERNGGNHDPSRMKAVIYSKHFWSGQDRSSSADKRKYGDPDAFRPAPGTGLVDMSRDRNIPRSPTSPGEGFVNFDYGWFGAQTEADADKTVWTHGNHYHAPNGSLGAMHVYESKFRNWSEGYSDFDRGAYVITFIPKSWNTAPDKVKQGWP | + (an improvement between 1.2 and 2-fold)
4 | S8: Tgase variant S2P K49T Q74F relative to SEQ ID NO: 2 (protein, UniProt P81453 77-407, looked up, variant S2P K49T Q74F) Protein-glutamine …: DPDDRVTPPAEPLDRMPDPYRPSYGRAETVVNNYIRKWQQVYSHRDGRTQQMTEEQREWLSYGCVGVTWVNSGFYPTNRLAFASFDEDRFKNELKNGRPRSGETRAEFEGRVAKESFDEEKGFQRAREVASVMNRALENAHDESAYLDNLKKELANGNDALRNEDARSPFYSALRNTPSFKERNGGNHDPSRMKAVIYSKHFWSGQDRSSSADKRKYGDPDAFRPAPGTGLVDMSRDRNIPRSPTSPGEGFVNFDYGWFGAQTEADADKTVWTHGNHYHAPNGSLGAMHVYESKFRNWSEGYSDFDRGAYVITFIPKSWNTAPDKVKQGWP | + (an improvement between 1.2 and 2-fold)
5 | S9: Tgase variant S2P Q51I K95I relative to SEQ ID NO: 2 (protein, UniProt P81453 77-407, looked up, variant S2P Q51I K95I) Protein-glutamine …: DPDDRVTPPAEPLDRMPDPYRPSYGRAETVVNNYIRKWQQVYSHRDGRKQIMTEEQREWLSYGCVGVTWVNSGQYPTNRLAFASFDEDRFKNELINGRPRSGETRAEFEGRVAKESFDEEKGFQRAREVASVMNRALENAHDESAYLDNLKKELANGNDALRNEDARSPFYSALRNTPSFKERNGGNHDPSRMKAVIYSKHFWSGQDRSSSADKRKYGDPDAFRPAPGTGLVDMSRDRNIPRSPTSPGEGFVNFDYGWFGAQTEADADKTVWTHGNHYHAPNGSLGAMHVYESKFRNWSEGYSDFDRGAYVITFIPKSWNTAPDKVKQGWP | + (an improvement between 1.2 and 2-fold)
